Experiments:
Test in all cases: purified protein
Format in all cases: biochemical, Rhizomucor miehei
Conditions in all cases: 50 mM sodium phosphate pH 6.5, 45 °C, 5 min
purified protein [1] = substrate: CC(=O)Oc1ccc([N+](=O)[O-])cc1
purified protein [2] = substrate: CCCCCCCC(=O)Oc1ccc([N+](=O)[O-])cc1
purified protein [3] = substrate: CCCCCC(=O)Oc1ccc([N+](=O)[O-])cc1
purified protein [4] = substrate: CCCCCCCCCCCC(=O)Oc1ccc([N+](=O)[O-])cc1
purified protein [5] = substrate: CCCC(=O)Oc1ccc([N+](=O)[O-])cc1
purified protein [6] = substrate: CCCCCCCCCC(=O)Oc1ccc([N+](=O)[O-])cc1

B1: RmEstA (Rhizomucor miehei) (protein)
chain: MTVGNPPIHPVYAAAFAAMKERPPIHTLDLKVVRESSEARQLAANIKLPEVIEEDKVVESDGKTLKLTIVRPPGTEDQILPVLIFLHGGGFVFGSKYTHIKPVRDLTVKANVVTVFVDYSLSPEAKFPTAIEEIYAAILWVRENASSLNINAEALAVAGDSAGATLSAAVSIYAKEKGLSAAIKTQVLIYPATAVSHAKYESYKLFGNGDYILSAEDLKFFSNAYLPAPASELNDKLATLELATKADLEGLPPALLFTAESDVLRDEGEKYAQQLAEAGVDVAAVRVLGAVHGFITVPVETPQYRFTINTIVAHLRDIYAKYNA
notes: full-length ORF, 324 residues, no signal peptide predicted; C-terminal His tag (pET-30a(+), NdeI/XhoI); E. coli BL21(DE3); Ni-IDA; 34,989 Da calculated, 34 kDa SDS-PAGE
- Km (purified protein [1]): 1000 µM
- kcat/Km (purified protein [1]): 370 M⁻¹ s⁻¹
- Km (purified protein [2]): 820 µM
- kcat/Km (purified protein [2]): 510 M⁻¹ s⁻¹
- Km (purified protein [3]): 120 µM
- kcat/Km (purified protein [3]): 8970 M⁻¹ s⁻¹
- Km (purified protein [4]): 300 µM
- kcat/Km (purified protein [4]): 60 M⁻¹ s⁻¹
- Km (purified protein [5]): 170 µM
- kcat/Km (purified protein [5]): 6900 M⁻¹ s⁻¹
- Km (purified protein [6]): 280 µM
- kcat/Km (purified protein [6]): 130 M⁻¹ s⁻¹

Reference: article PMC3813734, “Biochemical Characterization of a First Fungal Esterase from Rhizomucor miehei Showing High Efficiency of Ester Synthesis” (PLoS ONE, 2013)
